US20180155451A1 (published 2018)

T1: FcγRIIb extracellular domain with C-terminal His tag (human, UniProt P31994 43-217)
T1 construct: extracellular domain; Soluble receptor expressed in FreeStyle293 cells; analyte in Biacore; also called FcgRIIb; 2b; not shown: His tag at the C terminus
T1 sequence (looked up): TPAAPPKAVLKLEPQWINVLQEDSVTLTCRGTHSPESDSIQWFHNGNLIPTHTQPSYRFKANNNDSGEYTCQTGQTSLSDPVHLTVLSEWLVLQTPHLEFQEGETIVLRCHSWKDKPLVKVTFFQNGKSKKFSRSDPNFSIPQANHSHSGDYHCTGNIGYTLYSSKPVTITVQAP


Tests used:
[1] = target: T2, FcγRIa extracellular domain with C-terminal His tag (human, UniProt P12314 16-292); test: SPR (Biacore); He/Con_1a divided by He/Con_2b (FcγRIIb)
T2 construct: extracellular domain; Soluble receptor expressed in FreeStyle293 cells; analyte in Biacore; also called FcgRI; FcgRIa; not shown: His tag at the C terminus
T2 sequence (P12314 16-292): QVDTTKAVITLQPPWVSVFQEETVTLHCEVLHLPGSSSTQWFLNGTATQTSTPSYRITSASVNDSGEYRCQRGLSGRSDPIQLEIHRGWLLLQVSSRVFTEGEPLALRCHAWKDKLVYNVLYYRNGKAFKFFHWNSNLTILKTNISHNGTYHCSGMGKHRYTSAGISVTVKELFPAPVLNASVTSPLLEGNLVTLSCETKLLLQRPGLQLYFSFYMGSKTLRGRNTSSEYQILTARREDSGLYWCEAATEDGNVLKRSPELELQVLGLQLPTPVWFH
Protocol: (§1) The heterodimerized antibodies He Abs in which one of the H chains was introduced with an alteration were assayed for their binding activities to each activating FcγR and inhibitory FcγR according to the method described in Example 4. […] The activating FcγRs in FIGS. 26, 27, 28, and 29 are FcγRIa, FcγRIIa (R), FcγRIIa (H), and FcγRIIIa, respectively.
(§2) Analysis of interaction between objective antibody and the FcγR was carried out using Biacore T100 (GE Healthcare). HBS-EP+ (GE Healthcare) was used as the running buffer, and the measurement temperature was set to 25° C. Chips produced by immobilizing the antigen peptide by the amine coupling method to a Series S Sencor Chip CM5 (GE Healthcare), or alternatively, chips produced by allowing preliminarily biotinylated antigen peptides to interact with and immobilize onto a Series S Sensor Chip SA (certified) (GE Healthcare) were used. Antibodies of interest were captured onto an antigen peptide-immobilized chip, and allowed to interact to each FcγR diluted with running buffer. To regenerate and repeatedly use the chip, the antibodies captured on the chip were washed off by reacting 10 mM glycine-HCl, pH 1.5.

[2] = target: T2, FcγRIa extracellular domain with …; test: SPR (Biacore), antibody captured on antigen peptide chip, FcγR as analyte; binding relative to GpH7-A5/GpH7-B3/GpL16-k0 = 100
Protocol: as §1, §2

[3] = target: T1, FcγRIIb extracellular domain with …; test: as above
Protocol: as §1, §2

He_1a/2b (Ia/IIb) [1] | He/Con_1a (Ia binding) [2] | He/Con_2b (IIb binding) [3] | Binder
1.27 | 102 % of control (control = 100) | 80.4 % of control (control = 100) | GpH7-A5/GpH7-B3 variant E333_12R/GpL16-k0 (antibody, human IgG1, kappa, He Ab: heterodimerized anti-glypican-3 IgG1, substitution in one H chain only; also called He Ab E333R) heavy 1: not shown heavy 2: not shown light: DIVMTQSPLSLPVTPGEPASISCQASESLVHSNRNTYLHWYLQKPGQSPQLLIYKVSNRFSGVPDRFSGSGSGTDFTLKISRVEAEDVGVYYCSQNTHVPPTFGQGTKVEIERTVAAPSVFIFPPSDEQLKSGTASVVCLLNNFYPREAKVQWKVDNALQSGNSQESVTEQDSKDSTYSLSSTLTLSKADYEKHKVYACEVTHQGLSSPVTKSFNRGEC
1.22 | 102 % of control (control = 100) | 83.7 % of control (control = 100) | GpH7-A5/GpH7-B3 variant I336_13S/GpL16-k0 (antibody, human IgG1, kappa, He Ab: heterodimerized anti-glypican-3 IgG1, substitution in one H chain only; also called He Ab I336S) heavy 1: not shown heavy 2: not shown light: DIVMTQSPLSLPVTPGEPASISCQASESLVHSNRNTYLHWYLQKPGQSPQLLIYKVSNRFSGVPDRFSGSGSGTDFTLKISRVEAEDVGVYYCSQNTHVPPTFGQGTKVEIERTVAAPSVFIFPPSDEQLKSGTASVVCLLNNFYPREAKVQWKVDNALQSGNSQESVTEQDSKDSTYSLSSTLTLSKADYEKHKVYACEVTHQGLSSPVTKSFNRGEC
1.21 | 109 % of control (control = 100) | 90.1 % of control (control = 100) | GpH7-A5/GpH7-B3 variant I336_01G/GpL16-k0 (antibody, human IgG1, kappa, He Ab: heterodimerized anti-glypican-3 IgG1, substitution in one H chain only; also called He Ab I336G) heavy 1: not shown heavy 2: not shown light: DIVMTQSPLSLPVTPGEPASISCQASESLVHSNRNTYLHWYLQKPGQSPQLLIYKVSNRFSGVPDRFSGSGSGTDFTLKISRVEAEDVGVYYCSQNTHVPPTFGQGTKVEIERTVAAPSVFIFPPSDEQLKSGTASVVCLLNNFYPREAKVQWKVDNALQSGNSQESVTEQDSKDSTYSLSSTLTLSKADYEKHKVYACEVTHQGLSSPVTKSFNRGEC
1.27 | 96.6 % of control (control = 100) | 76.1 % of control (control = 100) | GpH7-A5/GpH7-B3 variant E333_18N/GpL16-k0 (antibody, human IgG1, kappa, He Ab: heterodimerized anti-glypican-3 IgG1, substitution in one H chain only; also called He Ab E333N) heavy 1: not shown heavy 2: not shown light: DIVMTQSPLSLPVTPGEPASISCQASESLVHSNRNTYLHWYLQKPGQSPQLLIYKVSNRFSGVPDRFSGSGSGTDFTLKISRVEAEDVGVYYCSQNTHVPPTFGQGTKVEIERTVAAPSVFIFPPSDEQLKSGTASVVCLLNNFYPREAKVQWKVDNALQSGNSQESVTEQDSKDSTYSLSSTLTLSKADYEKHKVYACEVTHQGLSSPVTKSFNRGEC
1.25 | 106 % of control (control = 100) | 84.9 % of control (control = 100) | GpH7-A5/GpH7-B3 variant I336_02A/GpL16-k0 (antibody, human IgG1, kappa, He Ab: heterodimerized anti-glypican-3 IgG1, substitution in one H chain only; also called He Ab I336A) heavy 1: not shown heavy 2: not shown light: DIVMTQSPLSLPVTPGEPASISCQASESLVHSNRNTYLHWYLQKPGQSPQLLIYKVSNRFSGVPDRFSGSGSGTDFTLKISRVEAEDVGVYYCSQNTHVPPTFGQGTKVEIERTVAAPSVFIFPPSDEQLKSGTASVVCLLNNFYPREAKVQWKVDNALQSGNSQESVTEQDSKDSTYSLSSTLTLSKADYEKHKVYACEVTHQGLSSPVTKSFNRGEC
2.05 | 100 % of control (control = 100) | 48.9 % of control (control = 100) | GpH7-A5/GpH7-B3 variant I332_12R/GpL16-k0 (antibody, human IgG1, kappa, He Ab: heterodimerized anti-glypican-3 IgG1, substitution in one H chain only; also called He Ab I332R) heavy 1: not shown heavy 2: not shown light: DIVMTQSPLSLPVTPGEPASISCQASESLVHSNRNTYLHWYLQKPGQSPQLLIYKVSNRFSGVPDRFSGSGSGTDFTLKISRVEAEDVGVYYCSQNTHVPPTFGQGTKVEIERTVAAPSVFIFPPSDEQLKSGTASVVCLLNNFYPREAKVQWKVDNALQSGNSQESVTEQDSKDSTYSLSSTLTLSKADYEKHKVYACEVTHQGLSSPVTKSFNRGEC
1.26 | 103 % of control (control = 100) | 81.8 % of control (control = 100) | GpH7-A5/GpH7-B3 variant E333_13S/GpL16-k0 (antibody, human IgG1, kappa, He Ab: heterodimerized anti-glypican-3 IgG1, substitution in one H chain only; also called He Ab E333S) heavy 1: not shown heavy 2: not shown light: DIVMTQSPLSLPVTPGEPASISCQASESLVHSNRNTYLHWYLQKPGQSPQLLIYKVSNRFSGVPDRFSGSGSGTDFTLKISRVEAEDVGVYYCSQNTHVPPTFGQGTKVEIERTVAAPSVFIFPPSDEQLKSGTASVVCLLNNFYPREAKVQWKVDNALQSGNSQESVTEQDSKDSTYSLSSTLTLSKADYEKHKVYACEVTHQGLSSPVTKSFNRGEC
1.21 | 101 % of control (control = 100) | 83.3 % of control (control = 100) | GpH7-A5/GpH7-B3 variant E333_16H/GpL16-k0 (antibody, human IgG1, kappa, He Ab: heterodimerized anti-glypican-3 IgG1, substitution in one H chain only; also called He Ab E333H) heavy 1: not shown heavy 2: not shown light: DIVMTQSPLSLPVTPGEPASISCQASESLVHSNRNTYLHWYLQKPGQSPQLLIYKVSNRFSGVPDRFSGSGSGTDFTLKISRVEAEDVGVYYCSQNTHVPPTFGQGTKVEIERTVAAPSVFIFPPSDEQLKSGTASVVCLLNNFYPREAKVQWKVDNALQSGNSQESVTEQDSKDSTYSLSSTLTLSKADYEKHKVYACEVTHQGLSSPVTKSFNRGEC
